Biological target: GST-FL-UBQLN1 (full-length wild-type human UBQLN1 GST-fusion protein) (human, UniProt Q9UMX0 1-589)
Assay: pull-down

GST-FL-UBQLN1 (full-length wild-type human UBQLN1 GST-fusion protein), sequence (Q9UMX0 whole entry, the tested form may be a part): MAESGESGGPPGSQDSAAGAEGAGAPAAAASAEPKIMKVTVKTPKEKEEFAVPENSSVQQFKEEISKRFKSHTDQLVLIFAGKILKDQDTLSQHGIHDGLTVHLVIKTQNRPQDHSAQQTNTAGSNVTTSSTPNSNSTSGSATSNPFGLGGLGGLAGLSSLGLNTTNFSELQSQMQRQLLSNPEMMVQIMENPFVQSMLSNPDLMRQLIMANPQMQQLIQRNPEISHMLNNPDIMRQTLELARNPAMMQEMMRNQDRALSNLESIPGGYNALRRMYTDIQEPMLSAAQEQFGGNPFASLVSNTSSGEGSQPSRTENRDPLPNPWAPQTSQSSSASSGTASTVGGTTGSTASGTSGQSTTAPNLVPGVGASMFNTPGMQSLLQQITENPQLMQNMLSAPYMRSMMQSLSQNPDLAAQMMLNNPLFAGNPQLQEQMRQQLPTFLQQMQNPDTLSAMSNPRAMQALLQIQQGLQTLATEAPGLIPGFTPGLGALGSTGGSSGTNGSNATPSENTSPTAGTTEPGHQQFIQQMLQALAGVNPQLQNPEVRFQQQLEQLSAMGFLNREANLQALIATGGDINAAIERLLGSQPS

B1: Full-length human S5a proteasome subunit, His-tagged (natural protein, UniProt P55036 1-377, looked up)
chain: MVLESTMVCVDNSEYMRNGDFLPTRLQAQQDAVNIVCHSKTRSNPENNVGLITLANDCEVLTTLTPDTGRILSKLHTVQPKGKITFCTGIRVAHLALKHRQGKNHKMRIIAFVGSPVEDNEKDLVKLAKRLKKEKVNVDIINFGEEEVNTEKLTAFVNTLNGKDGTGSHLVTVPPGPSLADALISSPILAGEGGAMLGLGASDFEFGVDPSADPELALALRVSMEEQRQRQEEEARRAAAASAAEAGIATTGTEDSDDALLKMTISQQEFGRTGLPDLSSMTEEEQIAYAMQMSLQGAEFGQAESADIDASSAMDTSEPAKEEDDYDVMQDPEFLQSVLENLPGVDPNNEAIRNAMGSLASQATKDGKKDKKEEDKK
B1: binds.
